Results reported in patent US10208121B2, “Anti-Axl antagonistic antibodies” (BERGEN TEKNOLOGIOVERFORING AS, priority 2014, dated 2019).

System: Mv4-11 tumours
Assay: Mv4-11 AML xenograft in nude mice
Format: in vivo, mouse
Method: Inhibition of Mv4-11 xenograft tumour growth by the chimeric antibody 10G5. The antibody was administrated intraperitoneally at 30 mg/kg, twice a week, starting when the mean tumour size reached 200 mm^3. Tumour growth curves for the groups treated with either vehicle (sterile PBS) or chimeric 10G5 are shown. Error bars represent standard error of the mean (SEM). Statistical analysis was performed using two-way ANOVA. *, P<0.05; **, P<0.01; ****, P<0.0001.
To evaluate the anti-tumour activity of anti-Axl chimeric antibodies in a model of haematological cancer, we used a mouse xenograft model of human acute myeloid leukaemia (AML). The human AML Mv4-11 cells (ATCC # CRL-9591) cells were propagated in suspension in IMDM medium supplemented with 10% FBS, 2 mM L-Glutamine, 100 U/ml penicillin and 100 μg/ml streptomycin. Nude mice were implanted s.c. into the flank with 5×10^6 Mv4-11 cells resuspended in the mixture of serum-free IMDM medium and Matrigel (1:1). When the tumour size reached 200 mm^3 (Day 0 in FIG. 15), the animals were randomized and treated with either vehicle (sterile PBS) or anti-Axl chimeric antibody 10G5 at 30 mg/kg, by i.p. injections twice weekly for 4 weeks.

B1: c10G5: chimeric (mouse variable/human constant) IgG1 variant of antibody 10G5 (antibody)
heavy: QVQLQQSGAELVRPGASVKLSCKASGYSFTDFYINWVRQRPGQGLEWIARIFPGGDNTYYNEKFKGKATLTAEESSSTAYIQLSSLTSEDSAVYFCARRGLYYAMDYWGQGISVTVSS
light: DVLMTQTPLSLPVSLGDQASISCRSSQSLVHSNGIPYLHWYLQKPGQSPKLLIYRVSNRFSGVPDRFSGSGSGTDFTLKISRVEAEDLGVYFCSQGTHVPPTFGGGTKLEIK
modifications: left off: a dimerising Fc or GST
notes: chimeric (mouse variable/human constant) IgG1 variant of antibody 10G5
30 mg/kg i.p. twice weekly for 4 weeks, P<0.0001, two-way ANOVA
  growth of Mv4-11 tumours compared with the control: extremely significantly attenuated growth of Mv4-11 tumours
30 mg/kg i.p. twice weekly, after three weeks of treatment, versus vehicle (PBS)
  inhibition of tumour growth: around 75%
